Test results taken from patent publication US20100233191.

Key:
[1] = system: wild-type proaerolysin from Aeromonas hydrophila
[2] = system: MPP5 (histidine-tagged modified proaerolysin with a PSA cleavage site)
[3] = system: MPP1 (proaerolysin with the furin site replaced by the PSA substrate HSSKLQ)

MMP-7, sequence (P09237 95-267): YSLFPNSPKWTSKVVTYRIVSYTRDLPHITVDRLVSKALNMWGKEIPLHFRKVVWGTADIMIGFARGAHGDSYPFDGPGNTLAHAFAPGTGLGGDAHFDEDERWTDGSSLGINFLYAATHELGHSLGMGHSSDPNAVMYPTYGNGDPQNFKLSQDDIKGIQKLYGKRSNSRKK

Row | Substance | Amount Required for 50% Cleavage of Native Proaerolysin [1] | Specific Activity Towards Proaerolysin [1] | Amount Required for 50% Cleavage of MPP5 [2] | Specific Activity Towards MPP5 [2] | hemolysis (ratio to Triton control), MPP1 10^-8 M pre-incubated with PSA in buffer [3] | hemolysis, MPP1 in human plasma or plasma spiked with PSA (10,000 ng/ml) [3]
1 | Cathepsin B (cysteine protease) | 51.6 units | 3.9 fmol/µg/min | 170 units | 1.2 fmol/µg/min | – | –
2 | Chymotrypsin | 3 µg | 1550 nM/µg/min | 31 µg | 150 nM/µg/min | – | –
3 | Furin | 0.0012 µg | 9.69 nM/µg/min | > 0.0032 µg | 0.24 nM/µg/min | – | –
4 | MMP-7 | Inactive | 0 | Inactive | 0 | – | –
5 | Prostate-specific antigen (PSA), also referred as hK3 | 49.7 µg | 0.0156 nM/µg/min | 12.2 µg | 0.0635 nM/µg/min | about 45% hemolysis | no appreciable hemolysis (i.e. <1% of Triton control
6 | Thrombin | > 12 µg | < 7.8e-07 nM/µg/min | > 12 µg | < 7.8e-07 nM/µg/min | – | –
7 | Trypsin (Type I trypsin) | 0.0095 µg | 489000 nM/µg/min | 0.813 µg | 5700 nM/µg/min | – | –
8 | hK1 (activated by thermolysin) | 2.63 µg | 15.3 fmol/µg/min | Inactive | 0 | – | –
9 | hK2 (human glandular kallikrein 2) | – | 1610 fmol/µg/min | Inactive | 0 | – | –
10 | uPA | 7.79 µg | 25.8 fmol/µg/min | 173 µg | 1.1 fmol/µg/min | – | –
